Data on 1 substance can be found in article PMC2799420.

In the experiment the target is Lyngbya majuscula JHB protein 7968 (Lyngbya majuscula JHB). The experiment in a line: PAGE analysis; kind of PAGE (native or SDS) and conditions not told; mentioned only in the discussion.

As to “Lyngbya majuscula JHB protein 7968 (natural protein)”, the stoichiometry N (in general, a count of units in the complex or per binding partner) came to 2.
